These results are taken from patent US8563700B2, “Synergistic effects” (ImmunoGen, Inc., priority 2008, dated 2013).

The T/C is the ratio of treated to control.

What all share (type): in vivo
Experiment [1] relates to MOLP-8 human multiple myeloma cells. Put plainly: huN901-DM1 and thalidomide in established subcutaneous MOLP-8 multiple myeloma xenografts. To be noted: SCID mice; huN901-DM1 100 μg/kg, thalidomide 200 mg/kg, as single agents or combined. An excerpt: (§1) Mice were inoculated with human multiple myeloma tumor cell lines and allowed to become established (average tumor size of about 100 mm^3) prior to treatment. Conjugate dosing is described based on DM1 concentration. Efficacy is reported as both the % of tumor growth for treated vs. control (% T/C) and log cell kill (LCK) determined from the tumor doubling time and the tumor growth delay due to the treatment.
(§2) Tumor growth was monitored by measuring tumor size twice per week. Tumor size was calculated with the formula: length×width×height×½.

Experiment [2] has as its system OPM2 human multiple myeloma cells. As to the kind of experiment: huN901-DM1 and lenalidomide in established subcutaneous OPM2 multiple myeloma xenografts. Particulars: combination same doses; for LCK / T/C: SCID mice, lenalidomide 100 mg/kg i.p. days 16-20, 23-27; for LCK: huN901-DM1 200 μg/kg i.v. day 16; for T/C: huN901-DM1 200 μg/kg i.v. single injection day 16. Here is the method:
as §1
The anti-tumor effect of a combination of huN901-DM1 and lenalidomide was evaluated in an established subcutaneous xenograft model of multiple myeloma. SCID mice (20 animals) were inoculated with OPM2 human multiple myeloma cells (1×10^7 cells/animal) injected subcutaneously into the right shoulder of the mice. When the tumors reached about 130 mm^3 in size (16 days after tumor cell inoculation), the mice were randomly divided into four groups (5 animals per group). One group of mice was treated with the single agent huN901-DM1 (200 μg/kg, day 16 post tumor cell inoculation) administered intravenously. […] A third group was treated with a combination of huN901-DM1 plus lenalidomide using the same doses, schedules and administration routes used for single agent treated groups. A control group of animals received PBS administered intravenously (day 16 post tumor cell inoculation). Tumor growth was monitored by measuring tumor size twice per week. Tumor size was calculated with the formula: length×width×height×½.

Experiment [3] has as its system H929 human multiple myeloma cells. As to the kind of experiment: huN901-DM1 and bortezomib in H929 multiple myeloma large tumor xenografts. Particulars: for activity according to NCI standards: huN901-DM1 50 μg/kg, bortezomib 0.5 mg/kg, as single agents or combined. Here is the method:
as §1
The anti-tumor effect of a combination of huN901-DM1 and bortezomib was evaluated in an established subcutaneous xenograft model of multiple myeloma. SCID mice (54 animals) were inoculated with H929 human multiple myeloma cells (1×10^7 cells/animal) injected subcutaneously into the right shoulder of the mice. […] Two groups of mice were treated with the single agent huN901-DM1 at DM1 doses of 50 μg/kg and 100 μg/kg, respectively (day 34 post tumor cell inoculation) administered intravenously. Two groups of mice were treated with the single agent bortezomib at a 0.5 mg/kg low dose and 1 mg/kg high dose (days 35 and 38 post tumor cell inoculation) administered intravenously. Four combination groups were evaluated, with combinations of each dose of huN901-DM1 plus low- or high-dose bortezomib using the same schedules used for single agent treated groups. A control group of animals received PBS administered intravenously (day 34 post tumor cell inoculation). Tumor growth was monitored by measuring tumor size twice per week. Tumor size was calculated with the formula: length×width×height×½.

The subject of experiment [4] is OPM2 human multiple myeloma cells. As to the kind of experiment: huN901-DM1 and bortezomib in established subcutaneous OPM2 multiple myeloma xenografts. To be noted: SCID mice.
Text: as §1
The anti-tumor effect of a combination of huN901-DM1 and bortezomib (Velcade, Millennium Pharmaceuticals) was evaluated in an established subcutaneous xenograft model of multiple myeloma. SCID mice (36 animals) were inoculated with OPM2 human multiple myeloma cells (1×10^7 cells/animal) injected subcutaneously into the right shoulder of the mice. […] Two groups of mice were treated with the single agent huN901-DM1 at DM1 doses of 100 μg/kg and 200 μg/kg, respectively (day 12 post tumor cell inoculation) administered intravenously. A third group of mice was treated with the single agent bortezomib at a dose of 1 mg/kg (days 13 and 16 post tumor cell inoculation), administered intravenously. Two groups were treated with combinations of huN901-DM1 (100 μg/kg or 200 μg/kg) plus bortezomib using the same doses, schedules and administration routes used for single agent treated groups. A control group of animals received PBS administered intravenously (day 12 post tumor cell inoculation). Tumor growth was monitored by measuring tumor size twice per week. Tumor size was calculated with the formula: length×width×height×½.

Experiment [5] deals with MOLP-8 human multiple myeloma cells. To be noted: Balb/c nude mice; huN901-DM1 200 μg/kg DM1 i.v. single injection day 22; melphalan 12 mg/kg i.p. single injection day 23; combination same doses.
Text: as §1, §2

For experiment [6] the test system is unchanged. As to the kind of experiment: Triple combination huN901-DM1, lenalidomide plus low-dose dexamethasone in MOLP-8 xenografts. Here is the method: Lenalidomide (100 mg/kg, qd×5×2) was administered at days 1-5 and 8-12. […]
as §1
The anti-tumor effect of a triple-combination of huN901-DM1 and lenalidomide plus low-dose dexamethasone was evaluated in an established subcutaneous xenograft model of multiple myeloma. SCID mice were inoculated with MOLP-8 human multiple myeloma cells (1.5×10^7 cells/animal) injected subcutaneously into the right shoulder of the mice. […] Treatments were initiated on day 13 post inoculation, indicated as day 1 of treatment. […] A second group of mice was treated with the combination of lenalidomide/low-dose dexamethasone (lenalidomide at 100 mg/kg, administered as a suspension in 1% carboxymethylcellulose/PBS by intraperitoneal injection on days 1-5, 8-12; dexamethasone at 1.5 mg/kg, administered by subcutaneous injection on days 1 and 8). A third group was treated with the triple-combination of huN901-DM1 plus lenalidomide/dexamethasone using the same doses, schedules and administration routes used for individual treatment groups. A control group of animals received PBS administered intravenously (days 1 and 8). Tumor growth was monitored by measuring tumor size twice per week. Tumor size was calculated with the formula: length×width×height×½.

Setting [7] is: bortezomib single agent, high dose 1.0 mg/kg.
[8] abbreviates: huN901-DM1 200 μg/kg, lenalidomide 100 mg/kg.

`O=C1CCC(N2C(=O)c3ccccc3C2=O)C(=O)N1` (stereo not shown) [thalidomide, reference compound]: the “activity according to NCI standards” value in experiment [1] was “inactive”.
With `Nc1cccc2c1CN(C1CCC(=O)NC1=O)C2=O` (stereo not shown) [lenalidomide, reference compound], in experiment [2], the LCK is 0.9 and the T/C was 28%.
Regarding `CC(C)C[C@H](NC(=O)[C@H](Cc1ccccc1)NC(=O)c1cnccn1)B(O)O` [bortezomib], in experiment [3] (setting [7]), the T/C was 11%, the outcome was active and the “tumor-free mice at day 119” value is on record as 1 of 6. Besides, the “activity according to NCI standards” value in experiment [3] was “inactive”. Besides, in experiment [4] (bortezomib single agent 1 mg/kg i.v. days 13 and 16), the “tumor-free mice at day 91” value is on record as “no tumor-free mice”.
On to `N[C@@H](Cc1ccc(N(CCCl)CCCl)cc1)C(=O)O` [melphalan, reference compound], for which the tumor growth delay in experiment [5] stood at 14 days.

B1: huN901-DM1: humanized antibody N901-maytansinoid conjugate (huN901-DM1); N901 binds to CD56 (conjugate, chains of the INN, looked up)
VH: QVQLVESGGGVVQPGRSLRLSCAASGFTFSSFGMHWVRQAPGKGLEWVAYISSGSFTIYYADSVKGRFTISRDNSKNTLYLQMNSLRAEDTAVYYCARMRKGYAMDYWGQGTLVTVSS
VL: DVVMTQSPLSLPVTLGQPASISCRSSQIIIHSDGNTYLEWFQQRPGQSPRRLIYKVSNRFSGVPDRFSGSGSGTDFTLKISRVEAEDVGVYYCFQGSHVPHTFGQGTKVEIK
modifications: DM1 maytansinoid conjugate
Consider B1, for which the activity result is “active” in experiment [6] (MOLP-8 tumors, doses as in Example 7) and “active” in experiment [2] (setting [8]). Besides, the T/C in experiment [6] (SCID mice, huN901-DM1 150 ng/kg, qw×2 i.v., lenalidomide 100 mg/kg i.p. days 1-5, 8-12, dexamethasone 1.5 mg/kg s.c. days 1 and 8) came to 33%; in experiment [2] it was 26%. Further, the LCK amounted to 0.5 in experiment [6] (SCID mice, huN901-DM1 150 μg/kg, qw×2 i.v., lenalidomide 100 mg/kg i.p. days 1-5, 8-12, dexamethasone 1.5 mg/kg s.c. days 1 and 8); 0.9 in experiment [2]. In addition, the regressions entry in experiment [6] (huN901-DM1 alone or lenalidomide/dexamethasone groups) is reported as “no regressions”. Moreover, the “activity according to NCI standards” value in experiment [1] and in experiment [3] was “inactive” in each case. The “tumor-free mice at the end of the study” value in experiment [2] (setting [8]) is given as “no tumor-free survivors”. For the same molecule, in experiment [5], the tumor growth delay worked out at 11 days. For the same molecule, the “tumor-free mice at day 91” value in experiment [4] (huN901-DM1 100 μg/kg i.v. day 12, alone or plus bortezomib 1 mg/kg i.v. days 13 and 16) is reported as 1 of 6; in experiment [4] (huN901-DM1 200 μg/kg i.v. day 12, alone or plus bortezomib 1 mg/kg i.v. days 13 and 16), 3 of 6.
